Laboratory results reported in patent publication US20050287527A1, “Quantitative ranking of transient ligand binding to target biomolecules” (National Research Council of Canada, priority 2002, published 2005).

Columns and labels:
[1] = molecular target: T1, human prothrombin (Homo sapiens, UniProt P00734); assay: 15N CPMG NMR relaxation dispersion of peptide ligand with human prothrombin, fitting of koff; format: binding
Protocol: Dried powder of the purified peptide was weighed using a Sartorius Supermicro S4™ balance and dissolved at ˜1.5 mM in an aqueous solution (10% D2O) that was 50 mM in NaCl and 50 mM in sodium phosphate at pH 5.5. Carefully measured volume aliquots of human prothrombin at a stock concentration of 0.3 mM were added to the peptide solution to produce molar ratios of ˜1:45, ˜1:35, and ˜1:30 for the prothrombin and peptide concentrations, respectively.
The core of the NMR relaxation dispersion measurements is the relaxation-compensated CPMG pulse scheme (FIG. 1) (Millet, O., Loria, J. P., Kroenke, C. D., Pons, M., and Palmer, A. G. (2000) J.Am.Chem.Soc. 122, 2867-2877; and Loria, J. P., Rance, M., and Palmer, A. G. (1999) J.Am.Chem.Soc. 121, 2331-2332). A train of ^15N 180° pulses with a separation of 1 ms is applied at 100 ppm off the center of the HSQC spectrum at the beginning of the recycle delay d1 such that the total number of ^15N 180° pulses, 4N, is kept the same for all experiments with different CPMG pulse repetition rates. An XY-16 180° pulse train (Gullion, T., Baker, D. B., and Conradi, M. S. (1990) J.Magn.Reson. 89, 479-484) is also applied to both the ^1H and ^15N nuclei during the two INEPT periods, which limits the decay of exchange-broadened ligand resonances. Further enhancement in sensitivity was achieved by using the 3919 WATERGATE sequence for water suppression (Piotto, M., Saudek, V., and Sklenar, V. (1992) J.Biomol.NMR 2, 661-665). The 90° and 180° RF pulses are represented by narrow and wide bars, respectively, applied along the +X axis unless specified otherwise. The open rectangles are water-selective soft pulses with duration of 2 ms. During data acquisition, ^15N decoupling is achieved using a GARP sequence (Shaka, A. J., Barker, P. B., and Freeman, R. (1985) J.Magn.Reson. 64, 547-552) with an RF field of 1.0 kHz (at 500 MHz) or 1.2 kHz (at 800 MHz). The delays are: Δ=2.7 ms, τ=1 ms, d2=d1-4(N-n)τ and τCPMG=(T/4n−pw180N), where T is the total duration of the ^15N CPMG pulse train and pw^180N is the width of the ^15N 180° pulse. Sinebell-shaped gradient pulses with a duration of 1 ms are used with gradient strengths of g1=5 G/cm, g2=6 G/cm, g3=1.2 G/cm, g4=6 G/cm, and g5=10 G/cm. The phases of some RF pulses are the same as those reported previously with φ1=+X−X, φ2=4(+X) 4(−X) and φ3=2(+X) 2(+Y) 2(−X) 2(−Y) (Millet, O., Loria, J. P., Kroenke, C. D., Pons, M., and Palmer, A. G. (2000) J.Am. Chem. Soc. 122, 2867-2877), except that the phases for the last ^15N 90° pulse, the WATERGATE sequence and the RF receiver are cycled as φ4=4(+X) 4(−X), φ5=8(+X) 8(+Y), φ6=8(−X) 8(−Y) and receiver=(+X−X−X+X) 2(−X+X+X−X) (+X−X−X+X). Phase-sensitive ^1H—^15N HSQC spectra were obtained by incrementing φ4, according to the States-TPPI scheme (Marion, D., Ikura, M., Tschudin, R., and Bax, A. (1989) J.Magn.Reson. 85, 393-). […] NMR data were collected at ^15N frequencies of 50.684 and 81.076 MHz using Bruker Avance/DRX 500 and 800 MHz NMR spectrometers. The total length of the ^15N CPMG pulse train, T (FIG. 1), is kept at a constant value of 40 ms and the total number (4N) of the ^15N CPMG 1800 pulses was set to 100.
For the specific application herein, values for koff, kon′, koff^1, koff^2, kon^−1, k1, k2, R2b(500 MHz), R2b(800 MHz), δωb, δωb1 and δωb2 (FIG. 2) were fitted as independent variables. Values kon^−2, pb, pb1, pb2, and pf=(1−pb1−pb2), with p standing for the population of the corresponding species, were derived using the condition of microscopic reversibility kijpi=kjipj, where kij denotes the exchange rate constant for the transformation of species i into species j.

[2] = molecular target: T1, human prothrombin; conditions: binding with human prothrombin; previous reports; cited from earlier work
[3] = molecular target: T2, thrombin (Homo sapiens, UniProt P00734); conditions: cited from earlier work
[4] = molecular target: T2, thrombin; assay: Inhibition of human thrombin; format: biochemical; conditions: bivalent inhibitor of human thrombin
[5] = molecular target: T2, thrombin; assay: Proteolytic cleavage of FD22 by active thrombin; format: biochemical; design: in complex with human α-thrombin; conditions: peptide ~0.9 mM, 50 mM sodium phosphate, 0.2 mM EDTA, pH 5.5, active thrombin added
Protocol: Titration of the thrombin-cleaved FD22 peptide was carried out as follows. The sample of FD22 was concentrated by Speed-Vac to 40 μl and 180 μl of a concentrated thrombin solution were added to give a final thrombin:peptide ratio of approximately 1:20 in 60 mM sodium phosphate buffer, 0.2 mM EDTA, 10% D2O, at pH 5.5. Additional steps of thrombin titrations were carried out by the addition of the human […]-thrombin concentrated to ˜8 mg/ml.
FD22 has the sequence of Phe-Asp45-Pro-Arg-Pro-Gln-Ser50-His-Asn-Asp-Gly-Asp55-Phe-Glu-Glu-Ile-Pro60-Glu-Glu-Tyr-Leu-Gln65 (SEQ ID NO:20) and binds to thrombin via both the anion-binding exosite-I and the catalytic active site. The addition of active thrombin to the peptide FD22 (dissolved at a concentration of ˜0.9 mM in 50 mM sodium phosphate buffer, 10% D2O, 0.2 mM EDTA, at pH 5.5), caused slow and specific proteolytic cleavage at the Arg47-Pro48 peptide bond (taking >60 hours for the cleavage to complete). Upon completion of the cleavage, the sample contains a mixture of two peptides, Phe-Asp45-Pro-Arg (FD22-N) (SEQ ID NO:17) and Pro-Gln-Ser50-His-Asn-Asp-Gly-Asp55-Phe-Glu-Glu-Ile-Pro60-Glu-Glu-Tyr-Leu-Gln65 (FD22-C) (SEQ ID NO:18) that should bind separately to the active site and the anion-binding exosite I of thrombin.

[6] = molecular target: T3, human α-thrombin (Homo sapiens, UniProt P00734); assay: 15N CPMG NMR relaxation dispersion of peptide ligand with human thrombin, fitting of koff; format: binding; conditions: 288 K, two-site exchange
T3 construct: in complex with human α-thrombin

[7] = "linear" three-site exchange model, Phe56, Glu57, Ile59 simultaneously
[8] = general ("full") three-site exchange, Phe56, Glu57, Ile59 simultaneously
[9] = residue Glu57, "linear" three-site exchange model, exchange between bound states

## N-acetyl-*Asp-*Phe-*Glu-*Glu-*Ile-Pro-Glu-Glu-Tyr-Leu-Gln [N-acetyl-Hir(55-65), anti-thrombin peptide]
[1]; [7]
  k1: 560 ± 510 s⁻¹
  kex=k1+k2: 700±500 s^1
[1]; [8]
  k1: 66 ± 57 s⁻¹
  k2: 110 ± 130 s⁻¹
  kex=k1+k2: 180 ± 150 s⁻¹
[1]; [9]
  k1: 50 ± 30 s⁻¹
  k2: 150 ± 70 s⁻¹
[2]
  Kd: 100 to 300 µM
[3]
  affinity for human thrombin compared with the same site on human prothrombin: higher affinity

## Phe-Asp45-Pro-Arg-Pro-Gln-Ser50-His-Asn-Asp-Gly-Asp55-Phe-Glu-Glu-Ile-Pro60-Glu-Glu-Tyr-Leu-Gln65 (FDPRPQSHNDGDFEEIPEEYLQ; Anti-thrombin peptide) [FD22]
[4]
  IC50: ~0.02 µM
[5]
  time for the cleavage at the Arg47-Pro48 peptide bond to complete: > 60 h

## Pro-Gln-Ser50-His-Asn-Asp-Gly-Asp55-Phe-Glu-Glu-Ile-Pro60-Glu-Glu-Tyr-Leu-Gln65 (PQSHNDGDFEEIPEEYLQ; Anti-thrombin peptide) [FD22-C]
[6]; residue Leu64 (FD22-C fragment), simultaneous fit at three α-thrombin concentrations
  koff: ~400 s⁻¹
[6]; residue Phe56 (FD22-C fragment), highest α-thrombin concentration only
  koff: ~400 s⁻¹
[6]; residue Tyr63 (FD22-C fragment), simultaneous fit at three α-thrombin concentrations
  koff: ~100 s⁻¹
